Test results published in patent US20240018501A1, “HIGHER PERFORMANCE PROTEASES FOR SCARLESS PEPTIDE TAG REMOVAL” (priority 2017, published 2024).

Key:
Pyr-LGPAIK = test system: T1, Pyr-LGPAIK
T1 sequence: LGPAIK

Pyr-AAI = test system: T2, Pyr-AAI
T2 sequence: AAI

Pyr-AA = test system: T3, Pyr-AA
T3 sequence: AA

Pyr-AAIV = test system: T4, Pyr-AAIV
T4 sequence: AAIV

Pyr-A = test system: T5, Pyr-A
T5 sequence: A

Pyr-AAAVK = test system: T6, Pyr-AAAVK
T6 sequence: AAAVK

Pyr-APVLA = test system: T7, Pyr-APVLA
T7 sequence: APVLA

OBu-AGPAIR = test system: T8, OBu-AGPAIR
T8 sequence: AGPAIR

[1] = biological target: dehydrated and cyclized LanA2 from B. licheniformis 9945A
modified CylLS [2] = test: Kinetic analysis of full length CylA and CylA-96-412 against modified CylLS (LC/MS); assay type: biochemical, Enterococcus faecalis
Experimental: Targeted peptides were dissolved in H2O to a final concentration of 3 mg/mL. To a 85 μL solution of peptides, 10 μL of 500 mM HEPES buffer (pH 7.5) was added followed by 5 μL of 0.5 mg/mL AspN protease (for modified CylLL and CylLS peptides), 0.1 mg/mL CylA protease (for modified and unmodified CylLL, CylLS peptides, and modified HalA2-GDVQAE peptide) or 0.1 mg/mL LicP protease (for LicA2). For cleavage tests of the engineered GDVQAE peptides, CylA was added to a final concentration of 0.01 mg/mL, whereas the peptide was added to a concentration of 0.3 mg/mL with 50 mM HEPES buffer (pH 7.5). The protease cleavage reaction mixtures were kept at 25° C. for 1 to 48 h. Osmotic pressure was adjusted with NaCl solution with a final concentration of 150 mM. The digested peptide mixture was directly used for antimicrobial and hemolytic assay. For the kinetic analysis of CylA and its mutant proteins, His6-CylA-27-412 and His6-CylA-27-412-E95A proteins were added to a final concentration of 500 ng/mL and 2.5 μg/mL (22 nM and 110 nM), respectively, with modified CylLS supplied at a concentration of 0.3 mg/mL (36 μM). The reactions were allowed to proceed at room temperature and were stopped by 1% TFA at different time points for LC/MS analysis. Halα and Halβ were obtained by factor Xa cleavage of modified HalA1Xa and HalA2 Xa peptides using the procedure of Y. Shi, et al. J. Am. Chem. Soc. 2011, 133, 2338. CylLL″ and CylLS″ were prepared in the same way using modified CylLL-E-1K and CylLS-E-1K peptides as described in W. Tang and W. A. van der Donk, Nat. Chem. Biol. 2013, 9, 157.
As full length CylA is not available due to its self-cleavage, His6-CylA-27-412-E95A was chosen to serve as a substituent of full length CylA as the self-cleavage was abolished whereas the conserved catalytic C-terminal region of CylA remained unchanged. To obtain the mature protease CylA-96-412, His6-CylA-27-412 was aged at 4° C. for 12 hours to allow the self-cleavage to proceed until CylA-96-412 was the dominant peak monitored by MALDI-TOF MS. The aged protein mixture was directly used as a substituent of CylA-96-412. To test the proteases' activities, CylA-96-412 and His6-CylA-27-412-E95A were supplied with a final concentration of 22 nM and 110 nM, respectively, with modified CylLS served at a concentration of 36 μM. The reactions were stopped at 3 minute, 6 minute, 12 minute and 24 minute by 1% TFA and the formation of mature CylLS″ was monitored by liquid chromatography MS (LC/MS). […] The production of core peptide was analyzed by extracted ion chromatography monitoring the desired product mass 1017 (M+2H^+).

modified CylLS [3] = biological target: modified CylLS
CylA = CylA self-cleavage (SDS-PAGE, MALDI-TOF MS); assay type: biochemical, Enterococcus faecalis
Experimental: E. coli BL21 (DE3) cells were transformed with pRSFDuet-1/CylA-27-412, pRSFDuet-1/CylA-27-412-E95A, pRSFDuet-1/CylA-27-412-S359A or pRSFDuet-1/LicP-25-433 vectors and plated on an LB plate containing 50 mg/L kanamycin. A single colony was picked and grown in 20 mL of LB with kanamycin at 37° C. for 12 h and the resulting culture was inoculated into 2 L of LB. Cells were cultured at 37° C. until the OD at 600 nm reached 0.5, cooled and IPTG was added to a final concentration of 0.1 mM. The cells were cultured at 18° C. for another 10 h before harvesting. The cell pellet was resuspended on ice in LanP start buffer (20 mM HEPES, 1 M NaCl, pH 7.5 at 25° C.) and lysed by homogenization. The lysed sample was centrifuged at 23,700×g for 30 min and the pellet was discarded. The supernatant was passed through 0.45-μm syringe filters and the protein was purified by immobilized metal affinity chromatography (IMAC) loaded with nickel as described in B. Li et al. Methods Enzymol. 2009, 458, 533. […] Protein concentration was quantified by its absorbance at 280 nm. The extinction coefficient for His6-CylA-27-412, His6-CylA-27-412-E95A and His6-CylA-27-412-S359A was calculated as 30,830 M^−1 cm^−1. The extinction coefficient for His6-LicP-25-433 was calculated as 46,300 M^−1 cm^−1. […]

[4] = biological target: T9, LanA3 encoded by the genome of B. cereus VD156
T9 chain: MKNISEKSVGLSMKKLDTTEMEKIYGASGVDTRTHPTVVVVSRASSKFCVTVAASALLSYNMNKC

His6-ElxO
reduction by His6-ElxO with NADPH (Pyr-LGPAIK): His6-ElxO reduced both peptides | reduction by His6-ElxO with NADPH, high-resolution LC-MS (lactocin S): confirming the formation of dihydrolactocin S | reduction by His6-ElxO with NADPH, LC-MS (Pyr-BPVLAAVAVAKKK): All the peptides were reduced as confirmed by LC-MS analysis | Relative (kcat/Km) (Pyr-KAIVK): 1.74 | kcat/Km (reduction by His6-ElxO, NADPH absorbance at 340 nm) (Pyr-KAIVK): 4.22 M⁻¹ s⁻¹ | Relative (kcat/Km) (Pyr-AAI): 0.02 | kcat/Km (reduction by His6-ElxO, NADPH absorbance at 340 nm) (Pyr-AAI): 0.06 M⁻¹ s⁻¹ | Relative (kcat/Km) (Pyr-AA): < 0.01 | kcat/Km (reduction by His6-ElxO, NADPH absorbance at 340 nm) (Pyr-AA): < 0.03 M⁻¹ s⁻¹ | Relative (kcat/Km) (Pyr-AAIV): 0.47 | kcat/Km (reduction by His6-ElxO, NADPH absorbance at 340 nm) (Pyr-AAIV): 1.13 M⁻¹ s⁻¹ | reduction by His6-ElxO with NADPH (Pyr-AAVLK): His6-ElxO reduced both peptides | Relative (kcat/Km) (Pyr-PAIVK): 0.05 | kcat/Km (reduction by His6-ElxO, NADPH absorbance at 340 nm) (Pyr-PAIVK): 0.13 M⁻¹ s⁻¹ | Relative (kcat/Km) (Glx-AAIVK): < 0.01 | kcat/Km (reduction by His6-ElxO, NADPH absorbance at 340 nm) (Glx-AAIVK): < 0.03 M⁻¹ s⁻¹ | Relative (kcat/Km) (Obu-AAIVK): 0.38 | kcat/Km (reduction by His6-ElxO, NADPH absorbance at 340 nm) (Obu-AAIVK): 0.92 M⁻¹ s⁻¹ | Relative (kcat/Km) (Obu-RAIVK): 0.62 | kcat/Km (reduction by His6-ElxO, NADPH absorbance at 340 nm) (Obu-RAIVK): 1.51 M⁻¹ s⁻¹ | Relative (kcat/Km) (Pyr-A): < 0.01 | kcat/Km (reduction by His6-ElxO, NADPH absorbance at 340 nm) (Pyr-A): < 0.03 M⁻¹ s⁻¹ | Relative (kcat/Km) (Pyr-AAIAK): 0.65 | kcat/Km (reduction by His6-ElxO, NADPH absorbance at 340 nm) (Pyr-AAIAK): 1.59 M⁻¹ s⁻¹ | Relative (kcat/Km) (Pyr-MAIVK): 6.4 | kcat/Km (reduction by His6-ElxO, NADPH absorbance at 340 nm) (Pyr-MAIVK): 15.5 M⁻¹ s⁻¹ | Relative (kcat/Km) (Pyr-AAAVK): 0.12 | kcat/Km (reduction by His6-ElxO, NADPH absorbance at 340 nm) (Pyr-AAAVK): 0.29 M⁻¹ s⁻¹ | Relative (kcat/Km) (Pyr-DAIVK): 0.12 | kcat/Km (reduction by His6-ElxO, NADPH absorbance at 340 nm) (Pyr-DAIVK): 0.29 M⁻¹ s⁻¹ | reduction by His6-ElxO with NADPH, LC-MS (Pyr-APVLA): All the peptides were reduced as confirmed by LC-MS analysis | Relative (kcat/Km) (Pyr-NAIVK): 3.13 | kcat/Km (reduction by His6-ElxO, NADPH absorbance at 340 nm) (Pyr-NAIVK): 7.6 M⁻¹ s⁻¹ | reduction by His6-ElxO with NADPH, LC-MS (OBu-AGPAIR): All the peptides were reduced as confirmed by LC-MS analysis | Relative (kcat/Km) (Pyr-AAIVA): 0.55 | kcat/Km (reduction by His6-ElxO, NADPH absorbance at 340 nm) (Pyr-AAIVA): 1.33 M⁻¹ s⁻¹ | Relative (kcat/Km) (Pyr-AAIVKBBIKAAKK): 5.83 | kcat/Km (reduction by His6-ElxO, NADPH absorbance at 340 nm) (Pyr-AAIVKBBIKAAKK): 14.2 M⁻¹ s⁻¹ | Relative (kcat/Km) (Pyr-AAIVK): 1 | kcat/Km (reduction by His6-ElxO, NADPH absorbance at 340 nm) (Pyr-AAIVK): 2.43 M⁻¹ s⁻¹ | Relative (kcat/Km) (Pyr-RAIVK): 2.26 | kcat/Km (reduction by His6-ElxO, NADPH absorbance at 340 nm) (Pyr-RAIVK): 5.5 M⁻¹ s⁻¹

B1: LanP from B. licheniformis 9945A (without signal sequence, with His6 tag) (protein)
chain: MGSSHHHHHHSQDPDRYTIYLESPAHHDDWVKTLNERNIKLVYSVEEIGLYQIEGRQKEVQELAAEINYINSHNQSVAMQPASLHNTAPAEATIFGGTPTLWDDFQWDMRKATNNGQTYQITEGSKNTIVGIIDSGIDMNHPDLKENILSVRNFVPKGGLRGQEPYEKGDINDSTDYLGHGTFVAGQIAANGLMKGIAPETGIRSYRVFGGKSADTVWIIDAIIQAAIDDVDIINVSFGTFLVKQNRKNKQMPDTNDLAEIKAFKKAVSFAHKKGSAVVASIGNEGLDLKDKNAVFEYWRSTKQEDLSADGKVILIPAQLPNVVTVSSIGPSGMRSVFSNYGKNVVDIAADGGDLRLLNEVGEDRYYGEGLFRQEYILGAAPGVTYTFSIGTSIAAPKVSGALALLIDQKQLHDKPDKAVKILLKNADRNADKIDTGAGVLNVYRALTD
cleavage by the corresponding LanP, MALDI-TOF MS [1]: fully modified core peptide is observed after protease treatment (inset) ... the leader peptide is also observed

B2: His6-CylA-27-412-E95A (protein)
chain: MKRIYIFLLCFAVLLPVGGKTAQAKEQAGEQYLLLEHVKDKSKLLDTAEQFHIHADVIEEIGFAKVTGEKQKLAPFTKKLAEKVGADVIEKPIANTAVNETESVISGSPAWGLDGILELKEYLWFAAKQTDSYRTYQIERGHPDVKVALIDSGLDLDHPDLKASVNTNGGWNYIDGKPVSGDPTGHGTQTAGMINIIAPDVTITPYQVLDEKGGDSYNIMKAMVDAVNDGHEVINISTGSYTSLDREGKVLMKAYQRAANYAAKHQVLVFSSAGNKGVNLDEMRKTENKVHLPSALKHVVSVGSNMKSNNISPYSNQGREIEFTAPGGYLGETYDQDGMVRVTDLVLTTYPKGKDNTALDQMLNIPKGYSLSYGTSLAAPQVAGTAALVISEYRERHHRKPSAKQVHHILRKSALDLGKPGKDVIYGYGEVRAYQALKMMNKE
cleavage of modified CylLS (modified CylLS [2]): resulted in cleavage | lower rate of producing CylLS″ (modified CylLS [2]; enzyme 110 nM, modified CylLS 36 μM, versus CylA-96-412): ~10 fold | cleavage by His6-CylA-27-412-E95A (modified CylLS [3]): Incubation of modified CylLS with His6-CylA-27-412-E95A resulted in cleavage | fold lower rate of producing CylLS″ than CylA-96-412 (LC/MS; 110 nM enzyme, 36 µM substrate) (modified CylLS [3]): exhibited an approximate 10-fold lower rate of producing CylLS″ | CylA self-cleavage during expression or purification (CylA): only one band corresponding to the full length protein

B3: LanP of B. cereus VD156 (without signal sequence, with His6 tag) (protein)
chain: MGSSHHHHHHSQDPTQIAYYSILIRDNTDFNTVLDKLSKDNQEVVYSIPEVNLIQVKGEKGKIISGIGLESIEEINPSTGEFKTYTPNINDQKVLDNKAIWDVQWDIKRITNNGESYKLHSPSGKVSVALIDSGYPENHPDIKSISIQKSKNLVPKGGYKGNEENETGNIHQLTDRTGHGTSVLSQVNADGLMKGVAPGMPVNMYRVFGESSAEGSWIIKGIIEAAKDKNDVINISAGSYLLKNGTYSDGSGNNRAEIKAYEKAIHYANKKGSIVVSALGNDSININIYSELLSILNSKIKDEGKSATGIVQDIPAQLAQVVSVASTGMDSKVSSFSNYGKNIIDFTAPGGDIKLLNKFGADVWMAEEMFKKEMILVAHPQGGYYFNYGNSLATPKVSGALALVIDKYGYKNKPNKAINHLKRNTNAENEIDLYKALQE
cleavage by the corresponding LanP, MALDI-TOF MS [4]: the core peptide is detected ... and the leader peptide is also observed
